Results taken from article PMC12313940, “Insights into a water-mediated catalytic triad architecture in CE20 carbohydrate esterases” (Nature Communications, 2025).

Assays:
[1] = target: T1, Fl8CE20_II (Salinimicrobium marinum, UniProt A0A918SDW1, Y335N); experiment: p-nitrophenol release, absorbance […] nm, Michaelis-Menten fit; assay type: biochemical; settings: 50 mM Tris-HCl pH 8.0, 100 mM NaCl, 5% DMSO, room temperature
T1 construct: gene GCM10007103_17970; pET28a(+), N-terminal 6xHis tag, expressed in E. coli BL21(DE3), SGNH hydrolase with inserted ancillary domain
T1 sequence (A0A918SDW1 entry or part of it Y335N): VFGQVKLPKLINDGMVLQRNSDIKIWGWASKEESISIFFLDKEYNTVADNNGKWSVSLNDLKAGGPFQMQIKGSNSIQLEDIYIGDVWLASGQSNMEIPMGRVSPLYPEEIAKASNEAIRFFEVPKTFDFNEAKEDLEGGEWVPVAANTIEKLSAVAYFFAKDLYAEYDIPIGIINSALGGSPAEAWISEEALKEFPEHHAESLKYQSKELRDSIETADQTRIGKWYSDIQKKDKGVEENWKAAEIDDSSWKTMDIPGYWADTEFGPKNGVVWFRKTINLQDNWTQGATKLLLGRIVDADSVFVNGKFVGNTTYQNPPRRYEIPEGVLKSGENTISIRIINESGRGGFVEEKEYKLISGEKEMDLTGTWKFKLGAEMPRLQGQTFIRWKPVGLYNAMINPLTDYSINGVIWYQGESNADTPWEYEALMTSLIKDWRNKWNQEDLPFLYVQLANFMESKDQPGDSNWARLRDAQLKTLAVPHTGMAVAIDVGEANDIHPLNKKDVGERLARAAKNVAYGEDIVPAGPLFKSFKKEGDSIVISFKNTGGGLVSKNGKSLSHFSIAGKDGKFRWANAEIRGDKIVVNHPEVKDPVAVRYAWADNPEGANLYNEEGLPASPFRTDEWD

[2] = target: T2, PpCE20_II (Pedobacter psychrotolerans, UniProt A0A4R2HIK5); experiment: p-nitrophenolate release, stopped with acetonitrile, […] nm; assay type: biochemical; settings: preferred temperature and pH of the enzyme
T2 construct: gene EV200_102244; catalytic residues Ser114, Asp518, His520
T2 sequence (A0A4R2HIK5 entry or part of it): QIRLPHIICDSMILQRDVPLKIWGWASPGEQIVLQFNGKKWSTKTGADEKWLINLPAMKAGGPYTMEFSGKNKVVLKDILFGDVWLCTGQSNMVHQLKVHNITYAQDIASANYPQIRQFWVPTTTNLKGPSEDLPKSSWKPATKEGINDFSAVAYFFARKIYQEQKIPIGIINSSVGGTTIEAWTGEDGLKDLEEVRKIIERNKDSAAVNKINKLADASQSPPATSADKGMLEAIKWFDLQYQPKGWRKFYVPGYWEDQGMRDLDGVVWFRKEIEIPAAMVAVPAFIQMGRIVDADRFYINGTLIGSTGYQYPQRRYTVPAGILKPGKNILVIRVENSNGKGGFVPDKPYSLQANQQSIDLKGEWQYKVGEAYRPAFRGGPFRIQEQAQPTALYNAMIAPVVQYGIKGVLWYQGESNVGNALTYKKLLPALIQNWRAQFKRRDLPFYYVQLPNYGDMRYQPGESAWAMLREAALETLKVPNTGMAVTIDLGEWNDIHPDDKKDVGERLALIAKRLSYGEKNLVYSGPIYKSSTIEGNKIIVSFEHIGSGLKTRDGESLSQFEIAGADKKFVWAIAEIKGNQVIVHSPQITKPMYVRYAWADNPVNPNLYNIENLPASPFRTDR

[3] = target: T3, Fl8CE20_II (Salinimicrobium marinum, UniProt A0A918SDW1, K371M); experiment: p-nitrophenol release, absorbance […] nm, Michaelis-Menten fit; assay type: biochemical; settings: 50 mM Tris-HCl pH 8.0, 100 mM NaCl, 5% DMSO, room temperature
T3 construct: gene GCM10007103_17970; pET28a(+), N-terminal 6xHis tag, expressed in E. coli BL21(DE3), SGNH hydrolase with inserted ancillary domain
T3 sequence (A0A918SDW1 entry or part of it K371M): as the sequence (A0A918SDW1 entry or part of it Y335N) above, with N316Y, K352M counted along it

[4] = substrate: CC(=O)Oc1ccc([N+](=O)[O-])cc1; experiment: purified protein; assay type: biochemical, Salinimicrobium marinum; settings: 50 mM Tris-HCl pH 8.0, 100 mM NaCl, 5% DMSO, room temperature

Molecule | KM [1] | KM [2] | KM [3] | Km [4] | kcat [4]
CC(=O)Oc1ccc([N+](=O)[O-])cc1 [pNP-acetate] | mutation of Tyr334 to Asn in the ancillary domain resulted in a decrease in kcat | In terms of biochemical and kinetic behaviour, all enzymes showed similar properties | slight reduction of kcat while showing the same KM as the mutant D513N |  | 
Fl8CE20_II (Salinimicrobium marinum) (protein, pET28a(+), N-terminal 6xHis tag, expressed in E. coli BL21(DE3), SGNH hydrolase with inserted ancillary domain) VFGQVKLPKLINDGMVLQRNSDIKIWGWASKEESISIFFLDKEYNTVADNNGKWSVSLNDLKAGGPFQMQIKGSNSIQLEDIYIGDVWLASGQSNMEIPMGRVSPLYPEEIAKASNEAIRFFEVPKTFDFNEAKEDLEGGEWVPVAANTIEKLSAVAYFFAKDLYAEYDIPIGIINSALGGSPAEAWISEEALKEFPEHHAESLKYQSKELRDSIETADQTRIGKWYSDIQKKDKGVEENWKAAEIDDSSWKTMDIPGYWADTEFGPKNGVVWFRKTINLQDNWTQGATKLLLGRIVDADSVFVNGKFVGNTTYQYPPRRYEIPEGVLKSGENTISIRIINESGRGGFVEEKEYKLISGEKEMDLTGTWKFKLGAEMPRLQGQTFIRWKPVGLYNAMINPLTDYSINGVIWYQGESNADTPWEYEALMTSLIKDWRNKWNQEDLPFLYVQLANFMESKDQPGDSNWARLRDAQLKTLAVPHTGMAVAIDVGEANDIHPLNKKDVGERLARAAKNVAYGEDIVPAGPLFKSFKKEGDSIVISFKNTGGGLVSKNGKSLSHFSIAGKDGKFRWANAEIRGDKIVVNHPEVKDPVAVRYAWADNPEGANLYNEEGLPASPFRTDEWD |  |  |  | 620 µM | 9.70 s⁻¹
Fl8CE20_II (Salinimicrobium marinum; D514E) (protein, pET28a(+), N-terminal 6xHis tag, expressed in E. coli BL21(DE3), SGNH hydrolase with inserted ancillary domain) VFGQVKLPKLINDGMVLQRNSDIKIWGWASKEESISIFFLDKEYNTVADNNGKWSVSLNDLKAGGPFQMQIKGSNSIQLEDIYIGDVWLASGQSNMEIPMGRVSPLYPEEIAKASNEAIRFFEVPKTFDFNEAKEDLEGGEWVPVAANTIEKLSAVAYFFAKDLYAEYDIPIGIINSALGGSPAEAWISEEALKEFPEHHAESLKYQSKELRDSIETADQTRIGKWYSDIQKKDKGVEENWKAAEIDDSSWKTMDIPGYWADTEFGPKNGVVWFRKTINLQDNWTQGATKLLLGRIVDADSVFVNGKFVGNTTYQYPPRRYEIPEGVLKSGENTISIRIINESGRGGFVEEKEYKLISGEKEMDLTGTWKFKLGAEMPRLQGQTFIRWKPVGLYNAMINPLTDYSINGVIWYQGESNADTPWEYEALMTSLIKDWRNKWNQEDLPFLYVQLANFMESKDQPGDSNWARLRDAQLKTLAVPHTGMAVAIDVGEANEIHPLNKKDVGERLARAAKNVAYGEDIVPAGPLFKSFKKEGDSIVISFKNTGGGLVSKNGKSLSHFSIAGKDGKFRWANAEIRGDKIVVNHPEVKDPVAVRYAWADNPEGANLYNEEGLPASPFRTDEWD |  |  |  | 2300 µM | 0.43 s⁻¹
Fl8CE20_II (Salinimicrobium marinum; D514Q) (protein, pET28a(+), N-terminal 6xHis tag, expressed in E. coli BL21(DE3), SGNH hydrolase with inserted ancillary domain) VFGQVKLPKLINDGMVLQRNSDIKIWGWASKEESISIFFLDKEYNTVADNNGKWSVSLNDLKAGGPFQMQIKGSNSIQLEDIYIGDVWLASGQSNMEIPMGRVSPLYPEEIAKASNEAIRFFEVPKTFDFNEAKEDLEGGEWVPVAANTIEKLSAVAYFFAKDLYAEYDIPIGIINSALGGSPAEAWISEEALKEFPEHHAESLKYQSKELRDSIETADQTRIGKWYSDIQKKDKGVEENWKAAEIDDSSWKTMDIPGYWADTEFGPKNGVVWFRKTINLQDNWTQGATKLLLGRIVDADSVFVNGKFVGNTTYQYPPRRYEIPEGVLKSGENTISIRIINESGRGGFVEEKEYKLISGEKEMDLTGTWKFKLGAEMPRLQGQTFIRWKPVGLYNAMINPLTDYSINGVIWYQGESNADTPWEYEALMTSLIKDWRNKWNQEDLPFLYVQLANFMESKDQPGDSNWARLRDAQLKTLAVPHTGMAVAIDVGEANQIHPLNKKDVGERLARAAKNVAYGEDIVPAGPLFKSFKKEGDSIVISFKNTGGGLVSKNGKSLSHFSIAGKDGKFRWANAEIRGDKIVVNHPEVKDPVAVRYAWADNPEGANLYNEEGLPASPFRTDEWD |  |  |  | 9890 µM | 0.18 s⁻¹
Fl8CE20_II (Salinimicrobium marinum; S435A) (protein, pET28a(+), N-terminal 6xHis tag, expressed in E. coli BL21(DE3), SGNH hydrolase with inserted ancillary domain) VFGQVKLPKLINDGMVLQRNSDIKIWGWASKEESISIFFLDKEYNTVADNNGKWSVSLNDLKAGGPFQMQIKGSNSIQLEDIYIGDVWLASGQSNMEIPMGRVSPLYPEEIAKASNEAIRFFEVPKTFDFNEAKEDLEGGEWVPVAANTIEKLSAVAYFFAKDLYAEYDIPIGIINSALGGSPAEAWISEEALKEFPEHHAESLKYQSKELRDSIETADQTRIGKWYSDIQKKDKGVEENWKAAEIDDSSWKTMDIPGYWADTEFGPKNGVVWFRKTINLQDNWTQGATKLLLGRIVDADSVFVNGKFVGNTTYQYPPRRYEIPEGVLKSGENTISIRIINESGRGGFVEEKEYKLISGEKEMDLTGTWKFKLGAEMPRLQGQTFIRWKPVGLYNAMINPLTDYSINGVIWYQGEANADTPWEYEALMTSLIKDWRNKWNQEDLPFLYVQLANFMESKDQPGDSNWARLRDAQLKTLAVPHTGMAVAIDVGEANDIHPLNKKDVGERLARAAKNVAYGEDIVPAGPLFKSFKKEGDSIVISFKNTGGGLVSKNGKSLSHFSIAGKDGKFRWANAEIRGDKIVVNHPEVKDPVAVRYAWADNPEGANLYNEEGLPASPFRTDEWD |  |  |  | 210 µM | 4.48 s⁻¹
Fl8CE20_II (Salinimicrobium marinum; R314Q) (protein, pET28a(+), N-terminal 6xHis tag, expressed in E. coli BL21(DE3), SGNH hydrolase with inserted ancillary domain) VFGQVKLPKLINDGMVLQRNSDIKIWGWASKEESISIFFLDKEYNTVADNNGKWSVSLNDLKAGGPFQMQIKGSNSIQLEDIYIGDVWLASGQSNMEIPMGRVSPLYPEEIAKASNEAIRFFEVPKTFDFNEAKEDLEGGEWVPVAANTIEKLSAVAYFFAKDLYAEYDIPIGIINSALGGSPAEAWISEEALKEFPEHHAESLKYQSKELRDSIETADQTRIGKWYSDIQKKDKGVEENWKAAEIDDSSWKTMDIPGYWADTEFGPKNGVVWFRKTINLQDNWTQGATKLLLGQIVDADSVFVNGKFVGNTTYQYPPRRYEIPEGVLKSGENTISIRIINESGRGGFVEEKEYKLISGEKEMDLTGTWKFKLGAEMPRLQGQTFIRWKPVGLYNAMINPLTDYSINGVIWYQGESNADTPWEYEALMTSLIKDWRNKWNQEDLPFLYVQLANFMESKDQPGDSNWARLRDAQLKTLAVPHTGMAVAIDVGEANDIHPLNKKDVGERLARAAKNVAYGEDIVPAGPLFKSFKKEGDSIVISFKNTGGGLVSKNGKSLSHFSIAGKDGKFRWANAEIRGDKIVVNHPEVKDPVAVRYAWADNPEGANLYNEEGLPASPFRTDEWD |  |  |  | 40 µM | 1.3 s⁻¹
Fl8CE20_II (Salinimicrobium marinum; R314E) (protein, pET28a(+), N-terminal 6xHis tag, expressed in E. coli BL21(DE3), SGNH hydrolase with inserted ancillary domain) VFGQVKLPKLINDGMVLQRNSDIKIWGWASKEESISIFFLDKEYNTVADNNGKWSVSLNDLKAGGPFQMQIKGSNSIQLEDIYIGDVWLASGQSNMEIPMGRVSPLYPEEIAKASNEAIRFFEVPKTFDFNEAKEDLEGGEWVPVAANTIEKLSAVAYFFAKDLYAEYDIPIGIINSALGGSPAEAWISEEALKEFPEHHAESLKYQSKELRDSIETADQTRIGKWYSDIQKKDKGVEENWKAAEIDDSSWKTMDIPGYWADTEFGPKNGVVWFRKTINLQDNWTQGATKLLLGEIVDADSVFVNGKFVGNTTYQYPPRRYEIPEGVLKSGENTISIRIINESGRGGFVEEKEYKLISGEKEMDLTGTWKFKLGAEMPRLQGQTFIRWKPVGLYNAMINPLTDYSINGVIWYQGESNADTPWEYEALMTSLIKDWRNKWNQEDLPFLYVQLANFMESKDQPGDSNWARLRDAQLKTLAVPHTGMAVAIDVGEANDIHPLNKKDVGERLARAAKNVAYGEDIVPAGPLFKSFKKEGDSIVISFKNTGGGLVSKNGKSLSHFSIAGKDGKFRWANAEIRGDKIVVNHPEVKDPVAVRYAWADNPEGANLYNEEGLPASPFRTDEWD |  |  |  | 300 µM | 4.67 s⁻¹
